# Test results as given in patent US20210361740A1.
# Experiments:
# [1] = molecular target: cMyc-tagged C-terminal TLR2 (cTLR2) recombinant protein, C-terminal TIR domain of TLR2 (640-784 amino acids) (UniProt Q9QUN7); test: SPR, cTLR2 immobilised, peptide as analyte; equilibrium response versus peptide concentration; mTIDM (mutated) peptide
# [2] = molecular target: cMyc-tagged C-terminal TLR2 (cTLR2) recombinant protein, C-terminal TIR domain of TLR2 (640-784 amino acids) (UniProt Q9QUN7); test: thermal shift assay of cTLR2 with mTIDM peptide
# [3] = molecular target: cMyc-tagged C-terminal TLR2 (cTLR2) recombinant protein, C-terminal TIR domain of TLR2 (640-784 amino acids) (UniProt Q9QUN7); test: SPR, cTLR2 immobilised, peptide as analyte; equilibrium response versus peptide concentration; wtTIDM peptide
# [4] = molecular target: cMyc-tagged C-terminal TLR2 (cTLR2) recombinant protein, C-terminal TIR domain of TLR2 (640-784 amino acids) (UniProt Q9QUN7); test: SPR, cTLR2 immobilised; reference mTIDM
# [5] = molecular target: cMyc-tagged C-terminal TLR2 (cTLR2) recombinant protein, C-terminal TIR domain of TLR2 (640-784 amino acids) (UniProt Q9QUN7); test: thermal shift assay of cTLR2 with wtTIDM peptide
# Chain of cMyc-tagged C-terminal TLR2 (cTLR2) recombinant protein, C-terminal TIR domain of TLR2 (640-784 amino acids) (Q9QUN7 640-784 limits assumed, form in doubt): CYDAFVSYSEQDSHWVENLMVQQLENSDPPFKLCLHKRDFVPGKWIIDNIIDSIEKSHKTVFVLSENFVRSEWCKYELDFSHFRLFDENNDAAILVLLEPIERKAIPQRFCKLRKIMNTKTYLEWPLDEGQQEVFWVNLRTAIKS
Kd [1],ΔTm (shift of melting temperature) [2],Kd [3],fold stronger affinity than mTIDM [4],ΔTm (shift of melting temperature) [5],Binder
19 µM,0.87 ° C.,,,,DRQIKIWFQNRRMKWKKPGWHQD [Mutated (m) TIDM peptide]
,,8 µM,2.5 fold,4.96 ° C.,DRQIKIWFQNRRMKWKKPGAHQK [Wild type (wt) TIDM peptide (TLR2-interacting domain of MyD88 joined to Antennapedia homeodomain)]
